What all share (type): cell-based
Test [1] concerns ERK. Briefly: Multiplexed biosensor imaging in HEK293T cells: ERK activity (yellow/far-red HaloTag-EKAR). The following applies: HEK293T cells co-expressing yellow/far-red HaloTag-EKAR and red/far-red HaloTag-AKAR; 100 ng/mL hEGF. Here is the method:
(§1) Cell culture and transfection HeLa and HEK293T cells were cultured in Dulbecco's modified Eagle medium (DMEM; Gibco) containing glucose (1 g/L) and supplemented with 10% (v/v) fetal bovine serum (Sigma-Aldrich) and 1% (v/v) penicillin-streptomycin (Pen-Strep; Sigma-Aldrich). NIH3T3 cells were cultured in DMEM (Gibco) containing glucose (1 g/L) and supplemented with 10% (v/v) fetal calf serum and 1% (v/v) Pen-Strep (Sigma-Aldrich). All cells were maintained in a humidified incubator at 37° C. with a 5% CO2 atmosphere. Before transfection, cells were plated onto sterile quartered 35-mm glass-bottomed dishes and grown to 50 to 70% confluence. Cells were then transfected using Lipofectamine 2000 (Invitrogen, HeLa) or PolyJet (SignaGen Laboratories, HEK293T and NIH3T3) and grown an additional 48 hours (HeLa, HEK293T) before imaging. NIH3T3 cells were changed to serum-free DMEM immediately before transfection, medium was changed to complete medium after 6 h. NIH3T3 cells were then serum-starved for 24 hours before imaging. HaloTag labeling was performed 24 h before imaging using synthetic fluorophores (Fluorophore-CA 500 nM, 24 h, 37° C.) in the respective medium. Synthetic fluorophores were kindly provided by Luke Lavis (Janelia Research Campus, JF669-CA, JFX646-CA and JF635) or Kai Johnsson (Max Planck Institute for Medical Research (Germany) and EPFL (Switzerland), NGD-CA). […]

Test [2] concerns the target T1, PKA (Homo sapiens, UniProt P17612).
T1 construct: endogenous in cells; host or cells: HEK293T; only the biosensors are transfected
The test is described as follows: Multiplexed biosensor imaging in HEK293T cells: PKA activity (red/far-red HaloTag-AKAR). The settings on record: HEK293T cells co-expressing yellow/far-red HaloTag-EKAR and red/far-red HaloTag-AKAR; 100 ng/mL hEGF; Fsk and 100 μM IBMX together; M H89. Here is the method: as §1

The subject of test [3] is PKA. The test is described as follows: HaloTag-based FluoSTEP-AKAR co-expressed with FP11-Actin in HeLa cells, Fsk/IBMX stimulation. The source says: Recently, anew biosensor design was developed using self-complementing split green FP (GFP) as the FRET donor. The self-complementation allowed the biosensors to be recruited and reconstituted at proteins of interest (POI) endogenously tagged with the FPs eleventh-strand (FP11). This allowed researchers to monitor compartmentalized signaling within endogenous microdomains without overexpressing the POI^[11]. However, this concept, fluorescent biosensors targeted to endogenous proteins (FluoSTEPs), suffers from two major limitations: low dynamic range and low brightness^[11]. Given the promising dynamic range achieved using HaloTag^(JF669) as a FRET acceptor in KARs, we decided to introduce HaloTag into FluoSTEP-AKAR. We replaced mRuby2 in FluoSTEP-AKAR with HaloTag and additionally introduced the EV linker to further increase the dynamic range. In order to address the limitation of low brightness of sfGFP as a FRET donor, we tested the use of two different split mNeonGreen (mNG) versions: split mNeonGreen2 (mNG2)^[22] and split mNeonGreen3A (mNG3A)[^21] in parallel (FIG. 8A). We co-expressed the generated biosensors with FP11-Actin in HeLa cells and used Fsk and IBMX to stimulate the reporters to monitor PKA signal. […] Consistent with previous results biosensors with HaloTag at the C-terminus performed best. […]

Test [4] deals with PKA. Briefly: FluoSTEP-AKAR in HeLa cells endogenously expressing mNG11 (knock-in), Fsk/IBMX treatment. The following applies: HeLa-mNG11-β-Actin, HeLa-mNG11-clathrin and HeLa-mNG11-ezrin cells; 50 M Fsk and 100 μM IBMX. The procedure: Using our enhanced HaloTag-based FluoSTEPs mNG3A(1-10)-FHA1-xx aa EV linker-PKA substrate-HaloTag^(JF669) (xx=220 and 116 aa) we measured PKA activation upon treatment with 50 M Fsk and 100 μM IBMX in HeLa cells endogenously expressing mNG11 at different locations (CRISPER-mediated knock-in).

B1: hEGF: human epidermal growth factor (protein, UniProt P01133 23-1207, looked up)
Pro-epidermal growth factor: PQHWSCPEGTLAGNGNSTCVGPAPFLIFSHGNSIFRIDTEGTNYEQLVVDAGVSVIMDFHYNEKRIYWVDLERQLLQRVFLNGSRQERVCNIEKNVSGMAINWINEEVIWSNQQEGIITVTDMKGNNSHILLSALKYPANVAVDPVERFIFWSSEVAGSLYRADLDGVGVKALLETSEKITAVSLDVLDKRLFWIQYNREGSNSLICSCDYDGGSVHISKHPTQHNLFAMSLFGDRIFYSTWKMKTIWIANKHTGKDMVRINLHSSFVPLGELKVVHPLAQPKAEDDTWEPEQKLCKLRKGNCSSTVCGQDLQSHLCMCAEGYALSRDRKYCEDVNECAFWNHGCTLGCKNTPGSYYCTCPVGFVLLPDGKRCHQLVSCPRNVSECSHDCVLTSEGPLCFCPEGSVLERDGKTCSGCSSPDNGGCSQLCVPLSPVSWECDCFPGYDLQLDEKSCAASGPQPFLLFANSQDIRHMHFDGTDYGTLLSQQMGMVYALDHDPVENKIYFAHTALKWIERANMDGSQRERLIEEGVDVPEGLAVDWIGRRFYWTDRGKSLIGRSDLNGKRSKIITKENISQPRGIAVHPMAKRLFWTDTGINPRIESSSLQGLGRLVIASSDLIWPSGITIDFLTDKLYWCDAKQSVIEMANLDGSKRRRLTQNDVGHPFAVAVFEDYVWFSDWAMPSVMRVNKRTGKDRVRLQGSMLKPSSLVVVHPLAKPGADPCLYQNGGCEHICKKRLGTAWCSCREGFMKASDGKTCLALDGHQLLAGGEVDLKNQVTPLDILSKTRVSEDNITESQHMLVAEIMVSDQDDCAPVGCSMYARCISEGEDATCQCLKGFAGDGKLCSDIDECEMGVPVCPPASSKCINTEGGYVCRCSEGYQGDGIHCLDIDECQLGEHSCGENASCTNTEGGYTCMCAGRLSEPGLICPDSTPPPHLREDDHHYSVRNSDSECPLSHDGYCLHDGVCMYIEALDKYACNCVVGYIGERCQYRDLKWWELRHAGHGQQQKVIVVAVCVVVLVMLLLLSLWGAHYYRTQKLLSKNPKNPYEESSRDVRSRRPADTEDGMSSCPQPWFVVIKEHQDLKNGGQPVAGEDGQAADGSMQPTSWRQEPQLCGMGTEQGCWIPVSSDKGSCPQVMERSFHMPSYGTQTLEGGVEKPHSLLSANPLWQQRALDPPHQMELTQ
modifications: Pro-epidermal growth factor
Regarding B1, in test [1], the ERK activity result is “increase in both ERK and PKA activity”. In addition, the PKA activity result in test [2] is “increase in both ERK and PKA activity”.

B2: mNG3A(1-10)-FHA1-EV linker-PKA substrate-HaloTag^(JF669): enhanced FluoSTEP-AKAR: split mNG3A donor, HaloTag^(JF669) acceptor, 116 aa EV linker (protein)
chain: MVSKGEEDNMASLPATHELHIFGSINGVDFDMVGQGTGNPNDGYEELNLKSTKGDLQFSPWILVPHIGYGFHQYLPYPDGMSPFQAAMVDGSGYQVHRTMQFEDGASLTVNYRYTYEGSHIKGEAQVMGTGFPADGPVMTNTLTAADLCVSKMTYPNDKTIISTFKWSYTTVNGKRYRSTARTTYTFAKPMAAKYLKNQPMYVLRKTELKHSMWTFGRNPACDYHLGNISRLSNKHFQILLGEDGNLLLNDISTNGTWLNGQKVSAGGSAGGSAGGSAGGSAGGSGSAGGSAGGSTSAGGSAGGSAGGSAGGSAGGSGSAGGSAGGSTSAGGSAGGSAGGSAGGSAGGSGSAGGSAGGSTSAGGSAGGSAGGSAGGSAGGLRRATLVDGGTGGSELMGSEIGTGFPFDPHYVEVLGERMHYVDVGPRDGTPVLFLHGNPTSSYVWRNIIPHVAPTHRCIAPDLIGMGKSDKPDLGYFFDDHVRFMDAFIEALGLEEVVLVIHDWGSALGFHWAKRNPERVKGIAFMEFIRPIPTWDEWPEFARETFQAFRTTDVGRKLIIDQNVFIEGTLPMGVVRPLTEVEMDHYREPFLNPVDREPLWRFPNELPIAGEPANIVALVEEYMDWLHQSPVPKLLFWGTPGVLIPPAEAARLAKSLPNCKAVDIGPGLNLLQEDNPDLIGSEIARWLSTLEISG
For B2, the “increase when stimulated (dynamic range)” value in test [3] (HeLa cells co-expressing FP11-Actin, Fsk and IBMX, HaloTag labeled with JF669, mean±SEM) is 71.1%±3.1%. Further, the “dynamic range relative to the conventional FluoSTEP” value in test [3] (same experimental conditions, conventional FluoSTEP-AKAR of reference [11]) was “about 8 times”. Besides, in test [4], the “response (PKA activation) compared between EV linker lengths” value is listed as “diminished response compared to the sensor with the 220 aa EV linker”.

The values are drawn from US20260235593A1, “FRET BIOSENSOR RECOMBINANT PROTEINS” (The Regents of the University of California, priority 2023, published 2026).
